Measurements published in publication PMC12820563, “FoxP3 forms a head-to-head dimer in vivo and stabilizes its multimerization on adjacent microsatellites”.

What was measured:
[1] = molecular target: T1, MBP-FoxP3dN (Mus musculus, UniProt Q99JB6 188-423); assay: pull-down; comparable to IR-FKHM; Pull-down: 20 mM Tris-HCl pH 7.5, 100 mM NaCl, 1.5 mM MgCl2, room temperature, 0.4 uM MBP protein, 0.1 uM DNA (NFAT 0.2 uM); EMSA: 20 mM HEPES pH 7.5, 150 mM NaCl, 1.5 mM MgCl2, 2 mM DTT, 4 C, 0.2 uM DNA (RBR-FKH 0.8 uM, NFAT 0.4 uM); conditions: protein: recombinant; tags: His6-MBP; chain copies: 2; blunt
T1 sequence: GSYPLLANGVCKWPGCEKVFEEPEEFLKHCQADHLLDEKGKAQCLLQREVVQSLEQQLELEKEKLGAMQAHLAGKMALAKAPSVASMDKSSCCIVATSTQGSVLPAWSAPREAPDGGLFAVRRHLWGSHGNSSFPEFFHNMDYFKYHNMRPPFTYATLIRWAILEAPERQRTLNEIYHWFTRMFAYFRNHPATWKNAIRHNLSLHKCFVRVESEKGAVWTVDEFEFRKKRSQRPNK
Outline: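 0.4 µM MBP-tagged mouse FoxP3 fragment (plus 0.2 µM NFAT fragment where included) was mixed with 0.1 µM duplex DNA in Tris buffer with NaCl and MgCl2 at room temperature. Complexes were captured on amylose resin, and proteinase K-released DNA was run on 10% TBE gels stained with SYBR Gold. In a gel-shift arm, 0.2 µM DNA and protein were held 10 min at 4 °C in HEPES buffer, then run on native gels. Binding was judged qualitatively from gels.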

[2] = molecular target: T2, FoxP1 RBR-FKH;NFAT1 DBD (Mus musculus;Mus musculus?, UniProt P58462;Q60591 427-579;394-680, |); assay: EMSA; monomer; Pull-down: 20 mM Tris-HCl pH 7.5, 100 mM NaCl, 1.5 mM MgCl2, room temperature, 0.4 uM MBP protein, 0.1 uM DNA (NFAT 0.2 uM); EMSA: 20 mM HEPES pH 7.5, 150 mM NaCl, 1.5 mM MgCl2, 2 mM DTT, 4 C, 0.2 uM DNA (RBR-FKH 0.8 uM, NFAT 0.4 uM); conditions: protein: recombinant;recombinant; tags: none (His6-NusA cleaved);none (His6-NusA cleaved); copies: 1;1; blunt
T2 sequence 1: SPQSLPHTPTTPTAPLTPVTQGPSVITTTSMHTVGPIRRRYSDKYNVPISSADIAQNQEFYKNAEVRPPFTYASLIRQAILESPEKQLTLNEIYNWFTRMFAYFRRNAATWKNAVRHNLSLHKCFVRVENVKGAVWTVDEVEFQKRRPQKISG
T2 sequence 2: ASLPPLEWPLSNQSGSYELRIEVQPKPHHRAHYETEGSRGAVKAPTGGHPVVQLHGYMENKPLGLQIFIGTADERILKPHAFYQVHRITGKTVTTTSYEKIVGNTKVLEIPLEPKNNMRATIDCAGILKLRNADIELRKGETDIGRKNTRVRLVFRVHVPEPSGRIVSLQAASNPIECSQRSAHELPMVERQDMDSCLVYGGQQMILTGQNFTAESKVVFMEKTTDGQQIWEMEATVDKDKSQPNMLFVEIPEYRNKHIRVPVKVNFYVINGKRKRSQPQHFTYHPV

[3] = molecular target: T3, FoxP1RBR-FoxP3FKH;NFAT1 DBD (Mus musculus;Mus musculus?, UniProt P58462;Q60591 427-492+Q99JB6:337-423;394-680, internal_change|); assay: as above; conditions: protein: recombinant;recombinant; tags: none (His6-NusA cleaved);none (His6-NusA cleaved); copies: 1;1; blunt
T3 sequence 1: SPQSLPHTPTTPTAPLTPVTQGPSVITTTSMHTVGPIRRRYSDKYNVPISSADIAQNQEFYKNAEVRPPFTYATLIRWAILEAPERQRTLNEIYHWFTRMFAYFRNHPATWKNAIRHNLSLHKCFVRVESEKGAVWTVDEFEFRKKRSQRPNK
T3 sequence 2: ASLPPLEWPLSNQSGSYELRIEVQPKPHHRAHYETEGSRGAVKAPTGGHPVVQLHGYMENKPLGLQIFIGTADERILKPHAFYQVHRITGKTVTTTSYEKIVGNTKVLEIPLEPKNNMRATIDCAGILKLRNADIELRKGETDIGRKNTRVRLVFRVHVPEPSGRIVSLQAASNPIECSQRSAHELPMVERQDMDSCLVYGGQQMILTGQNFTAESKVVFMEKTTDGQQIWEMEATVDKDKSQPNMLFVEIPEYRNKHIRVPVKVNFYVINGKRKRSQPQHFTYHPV

[4] = molecular target: T4, FoxP3 RBR-FKH;NFAT1 DBD (Mus musculus;Mus musculus?, UniProt Q99JB6;Q60591 284-423;394-680, |); assay: EMSA; dimer; Pull-down: 20 mM Tris-HCl pH 7.5, 100 mM NaCl, 1.5 mM MgCl2, room temperature, 0.4 uM MBP protein, 0.1 uM DNA (NFAT 0.2 uM); EMSA: 20 mM HEPES pH 7.5, 150 mM NaCl, 1.5 mM MgCl2, 2 mM DTT, 4 C, 0.2 uM DNA (RBR-FKH 0.8 uM, NFAT 0.4 uM); conditions: protein: recombinant;recombinant; tags: none (His6-NusA cleaved);none (His6-NusA cleaved); copies: 1;1; blunt
T4 sequence 1: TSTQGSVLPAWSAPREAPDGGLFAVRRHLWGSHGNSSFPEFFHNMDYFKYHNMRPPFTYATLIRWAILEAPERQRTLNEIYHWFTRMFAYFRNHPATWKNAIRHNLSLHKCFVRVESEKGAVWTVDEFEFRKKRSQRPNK
T4 sequence 2: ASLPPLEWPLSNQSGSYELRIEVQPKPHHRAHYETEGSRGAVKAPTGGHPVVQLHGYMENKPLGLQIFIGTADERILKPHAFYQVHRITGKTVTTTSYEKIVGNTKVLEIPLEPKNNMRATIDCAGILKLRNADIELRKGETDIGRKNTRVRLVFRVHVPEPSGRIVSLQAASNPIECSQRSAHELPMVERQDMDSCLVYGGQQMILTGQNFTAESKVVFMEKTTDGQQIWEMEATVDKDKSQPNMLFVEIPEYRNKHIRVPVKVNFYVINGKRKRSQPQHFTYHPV

[5] = molecular target: T5, FoxP3RBR-FoxP1FKH;NFAT1 DBD (Mus musculus;Mus musculus?, UniProt Q99JB6;Q60591 284-336+P58462:493-579;394-680, internal_change|); assay: as above; conditions: protein: recombinant;recombinant; tags: none (His6-NusA cleaved);none (His6-NusA cleaved); chain copies: 2;1; blunt
T5 sequence 1: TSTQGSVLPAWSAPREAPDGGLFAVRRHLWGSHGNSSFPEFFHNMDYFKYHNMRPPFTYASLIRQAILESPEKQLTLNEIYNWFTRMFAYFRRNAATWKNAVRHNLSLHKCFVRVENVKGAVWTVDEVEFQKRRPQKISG
T5 sequence 2: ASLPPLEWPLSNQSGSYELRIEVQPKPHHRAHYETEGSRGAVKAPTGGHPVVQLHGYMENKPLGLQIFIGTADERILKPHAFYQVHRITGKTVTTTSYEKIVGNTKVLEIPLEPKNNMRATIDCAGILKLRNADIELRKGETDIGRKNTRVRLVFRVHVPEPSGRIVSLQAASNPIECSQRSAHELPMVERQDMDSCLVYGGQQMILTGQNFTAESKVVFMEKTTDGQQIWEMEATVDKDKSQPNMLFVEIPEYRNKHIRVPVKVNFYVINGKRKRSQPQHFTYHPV

[6] = molecular target: T6, MBP-FoxP3dN;NFAT1 DBD (Mus musculus;Mus musculus?, UniProt Q99JB6;Q60591 188-423;394-680, |); assay: pull-down; NFAT enhances binding; Pull-down: 20 mM Tris-HCl pH 7.5, 100 mM NaCl, 1.5 mM MgCl2, room temperature, 0.4 uM MBP protein, 0.1 uM DNA (NFAT 0.2 uM); EMSA: 20 mM HEPES pH 7.5, 150 mM NaCl, 1.5 mM MgCl2, 2 mM DTT, 4 C, 0.2 uM DNA (RBR-FKH 0.8 uM, NFAT 0.4 uM); conditions: protein: recombinant;recombinant; tags: His6-MBP;none (His6-NusA cleaved); chain copies: 2;1; blunt
T6 sequence 1: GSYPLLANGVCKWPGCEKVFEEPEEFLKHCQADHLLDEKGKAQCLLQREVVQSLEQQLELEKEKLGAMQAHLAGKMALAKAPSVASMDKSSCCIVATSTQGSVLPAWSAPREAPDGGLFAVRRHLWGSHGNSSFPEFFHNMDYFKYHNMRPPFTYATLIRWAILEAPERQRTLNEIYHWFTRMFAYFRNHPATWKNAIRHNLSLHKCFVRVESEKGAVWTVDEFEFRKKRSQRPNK
T6 sequence 2: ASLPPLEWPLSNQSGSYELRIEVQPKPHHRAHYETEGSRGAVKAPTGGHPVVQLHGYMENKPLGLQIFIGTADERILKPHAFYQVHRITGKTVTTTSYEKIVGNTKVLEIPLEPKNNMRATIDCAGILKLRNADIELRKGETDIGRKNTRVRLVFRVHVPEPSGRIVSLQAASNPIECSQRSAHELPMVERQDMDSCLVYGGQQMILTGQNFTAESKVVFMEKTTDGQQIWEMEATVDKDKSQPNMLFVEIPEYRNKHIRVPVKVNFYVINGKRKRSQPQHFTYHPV

[7] = molecular target: T1, MBP-FoxP3dN; assay: pull-down; Pull-down: 20 mM Tris-HCl pH 7.5, 100 mM NaCl, 1.5 mM MgCl2, room temperature, 0.4 uM MBP protein, 0.1 uM DNA (NFAT 0.2 uM); EMSA: 20 mM HEPES pH 7.5, 150 mM NaCl, 1.5 mM MgCl2, 2 mM DTT, 4 C, 0.2 uM DNA (RBR-FKH 0.8 uM, NFAT 0.4 uM); conditions: protein: recombinant; tags: His6-MBP; chain copies: 2; blunt
[8] = molecular target: T6, MBP-FoxP3dN;NFAT1 DBD; assay: pull-down; optimal NFAT cooperativity; Pull-down: 20 mM Tris-HCl pH 7.5, 100 mM NaCl, 1.5 mM MgCl2, room temperature, 0.4 uM MBP protein, 0.1 uM DNA (NFAT 0.2 uM); EMSA: 20 mM HEPES pH 7.5, 150 mM NaCl, 1.5 mM MgCl2, 2 mM DTT, 4 C, 0.2 uM DNA (RBR-FKH 0.8 uM, NFAT 0.4 uM); conditions: protein: recombinant;recombinant; tags: His6-MBP;none (His6-NusA cleaved); chain copies: 2;1; blunt
[9] = molecular target: T4, FoxP3 RBR-FKH;NFAT1 DBD; assay: EMSA; monomer; Pull-down: 20 mM Tris-HCl pH 7.5, 100 mM NaCl, 1.5 mM MgCl2, room temperature, 0.4 uM MBP protein, 0.1 uM DNA (NFAT 0.2 uM); EMSA: 20 mM HEPES pH 7.5, 150 mM NaCl, 1.5 mM MgCl2, 2 mM DTT, 4 C, 0.2 uM DNA (RBR-FKH 0.8 uM, NFAT 0.4 uM); conditions: protein: recombinant;recombinant; tags: none (His6-NusA cleaved);none (His6-NusA cleaved); copies: 1;1; blunt
[10] = molecular target: T5, FoxP3RBR-FoxP1FKH;NFAT1 DBD; assay: as above; conditions: protein: recombinant;recombinant; tags: none (His6-NusA cleaved);none (His6-NusA cleaved); chain copies: 2;1; blunt

B1: DNA 2 (Fig S1F) (dsDNA)
DNA 1: AATTTTGTTGTGTCGAGTAAACAAATTT
DNA 2: AAATTTGTTTACTCGACACAACAAAATT
binding result [1]: binds

B2: DNA 9 (Fig S1F) (dsDNA)
DNA 1: AATTTGTGCATCTCGAGTAAACAAATTT
DNA 2: AAATTTGTTTACTCGAGATGCACAAATT
binding result [1]: binds

B3: DNA 8 (Fig S1F) (dsDNA)
DNA 1: AATTTGTGTTGTTCGAGTAAACAAATTT
DNA 2: AAATTTGTTTACTCGAACAACACAAATT
binding result [1]: binds

B4: DNA 1 (Fig S1F) (dsDNA)
DNA 1: AATTTGCGCATCTCGAGTAAACAAATTT
DNA 2: AAATTTGTTTACTCGAGATGCGCAAATT
binding result [1]: binds

B5: DNA 5 (Fig S1F) (dsDNA)
DNA 1: AATTTGTGTTTATCGAGTAAACAAATTT
DNA 2: AAATTTGTTTACTCGATAAACACAAATT
binding result [1]: binds

B6: DNA1 (NFAT IR-FKHM) (dsDNA)
DNA 1: TTAGGAAAATTTGTTTACTCGAGTAAACAAA
DNA 2: TTTGTTTACTCGAGTAAACAAATTTTCCTAA
binding result [2]: binds
binding result [3]: binds
binding result [4]: binds
binding result [5]: binds

B7: Var2 (dsDNA)
DNA 1: TTAGGAAATTTGCGCATCTCGAGTAAACAAATTT
DNA 2: AAATTTGTTTACTCGAGATGCGCAAATTTCCTAA
binding result [6]: binds

B8: DNA 7 (Fig S1F) (dsDNA)
DNA 1: AATTTGCCGCATTCGAGTAAACAAATTT
DNA 2: AAATTTGTTTACTCGAATGCGGCAAATT
binding result [1]: binds

B9: DNA 3 (Fig S1F) (dsDNA)
DNA 1: AATTTTGTGCATTCGAGTAAACAAATTT
DNA 2: AAATTTGTTTACTCGAATGCACAAAATT
binding result [1]: binds

B10: DNA 4 (Fig S1F) (dsDNA)
DNA 1: AATTTTGTTTATTCGAGTAAACAAATTT
DNA 2: AAATTTGTTTACTCGAATAAACAAAATT
binding result [1]: binds

B11: IR-FKHM (Fig 1C) (dsDNA)
DNA 1: TAGGAAAATTTGTTTACTCGAGTAAACATC
DNA 2: GATGTTTACTCGAGTAAACAAATTTTCCTA
binding result [7]: binds

B12: Var7 (dsDNA)
DNA 1: TTAGGAAATTTGTGCATTCGAGTAAACAAATTT
DNA 2: AAATTTGTTTACTCGAATGCACAAATTTCCTAA
binding result [8]: binds

B13: DNA 6 (Fig S1F) (dsDNA)
DNA 1: AATTTGCGCATTTCGAGTAAACAAATTT
DNA 2: AAATTTGTTTACTCGAAATGCGCAAATT
binding result [1]: binds

B14: DNA 10 (Fig S1F) (dsDNA)
DNA 1: AATTTGTTGCATTCGAGTAAACAAATTT
DNA 2: AAATTTGTTTACTCGAATGCAACAAATT
binding result [1]: binds

B15: DNA2 (NFAT sFKHM) (dsDNA)
DNA 1: TTAGGAAAATTTGTTTACTCCTCGCGGCAAA
DNA 2: TTTGCCGCGAGGAGTAAACAAATTTTCCTAA
binding result [2]: binds
binding result [3]: binds
binding result [9]: binds
binding result [10]: binds
